Measured values: article PMC7473840, “Identification of a molecular locus for normalizing dysregulated GABA release from interneurons in the Fragile X brain” (Molecular Psychiatry, 2018)

Biological target: FMRP (mouse cerebellum) (UniProt P35922)
Assay: anti-FMRP IP, Kv1.2 blot, peptide competition
Conditions: reference: no peptide (control); sites S440,S441

Kv1.2 (from UniProt P63141) 250 μM PhosKv436-457 (pS440/pS441) peptide added
other: reduction of co-IP'd Kv1.2: 75%
